Where a chain is given by its changes, count along the chain named.
How the values were obtained:
Experiment in all cases: SPR, KD relative to WT C2;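 note: biacore SPR at 37 °C, anti-C2 mAbs captured via immobilised goat anti-human IgG, C2 alanine or serine surface mutants as analytes, 1:1 model fitted, double-referenced sensograms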
human C2 E645A = target: T1, human C2 E645A (human, UniProt P06681 21-752)
T1 sequence: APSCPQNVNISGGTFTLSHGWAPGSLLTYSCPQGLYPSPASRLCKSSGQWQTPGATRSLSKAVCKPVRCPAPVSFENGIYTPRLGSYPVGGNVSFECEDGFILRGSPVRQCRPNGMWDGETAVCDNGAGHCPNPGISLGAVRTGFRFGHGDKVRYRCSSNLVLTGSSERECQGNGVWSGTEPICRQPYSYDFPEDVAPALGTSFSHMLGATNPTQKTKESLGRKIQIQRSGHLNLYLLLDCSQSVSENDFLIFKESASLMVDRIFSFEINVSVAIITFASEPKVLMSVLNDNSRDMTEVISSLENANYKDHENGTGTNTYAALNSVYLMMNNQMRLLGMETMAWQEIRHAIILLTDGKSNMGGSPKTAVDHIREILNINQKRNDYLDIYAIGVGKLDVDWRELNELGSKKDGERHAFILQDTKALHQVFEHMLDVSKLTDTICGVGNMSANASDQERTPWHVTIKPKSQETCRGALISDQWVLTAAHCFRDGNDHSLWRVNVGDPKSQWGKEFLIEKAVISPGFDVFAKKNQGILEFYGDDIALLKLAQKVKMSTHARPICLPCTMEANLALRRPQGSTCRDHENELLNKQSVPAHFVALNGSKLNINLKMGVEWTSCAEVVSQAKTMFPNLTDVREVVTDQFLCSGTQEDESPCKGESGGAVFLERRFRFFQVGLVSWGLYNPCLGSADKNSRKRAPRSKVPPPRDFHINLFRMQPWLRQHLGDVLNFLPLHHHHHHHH

[1] = target: T2, human complement C2 (wild type) (human, UniProt P06681 21-752)
T2 construct: Full-length human C2 (NP_000054) with C-terminal 8x His tag, secreted from Expi293F cells and purified from the supernatant; also called WT; huC2
T2 sequence: T1 sequence with A625E

human C2 D511A = target: T3, human C2 D511A (human, UniProt P06681 21-752)
T3 sequence: T1 sequence with D491A, A625E

B1: RF16-226 (antibody, human IgG4 S228P, lambda)
heavy: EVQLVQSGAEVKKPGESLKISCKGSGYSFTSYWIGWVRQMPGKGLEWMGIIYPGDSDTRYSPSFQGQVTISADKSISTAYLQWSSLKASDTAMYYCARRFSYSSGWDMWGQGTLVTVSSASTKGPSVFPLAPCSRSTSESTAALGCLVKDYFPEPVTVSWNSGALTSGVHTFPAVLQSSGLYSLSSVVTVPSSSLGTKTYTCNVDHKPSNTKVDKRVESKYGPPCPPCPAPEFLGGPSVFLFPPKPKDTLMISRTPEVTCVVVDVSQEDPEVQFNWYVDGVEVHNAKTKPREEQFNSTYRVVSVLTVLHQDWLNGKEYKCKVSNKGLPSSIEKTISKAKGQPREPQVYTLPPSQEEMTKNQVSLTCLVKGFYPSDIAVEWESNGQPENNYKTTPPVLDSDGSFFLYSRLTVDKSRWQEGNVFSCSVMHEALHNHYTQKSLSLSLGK
light: SYELTQPPSVSVSPGQTARITCSGDALTSKYVAWYQQKSGLAPLLVIYEDTRRPSGIPAKFSGSSSGSVATLTISGAHGDDEADYYCYSTDASGHQRVFGGGTKLTVLSQPKAAPSVTLFPPSSEELQANKATLVCLISDFYPGAVTVAWKADGSPVKAGVETTKPSKQSNNKYAASSYLSLTPEQWKSHRSYSCQVTHEGSTVEKTVAPTECS
notes: pH-dependent anti-C2 antibody from a phage display library; also called WT
What does the source list for B1?
Fold diff (human C2 E645A): 1 fold; Fold diff [1]: 1 fold; Fold diff (human C2 D511A): 3 fold
